Data on 1 molecule can be found in article PMC10399710, “The invariant chain CD74 protein is a cell surface binding partner of TIMP‐1 in breast cancer cells” (Molecular Oncology, 2023).

This assay deals with T1, MHC class II‐associated invariant chain γ (CD74), endogenous in MDA‐MB‐231 cells (human (endogenous in MDA‐MB‐231), UniProt P04233 1-296).
T1 sequence (looked up): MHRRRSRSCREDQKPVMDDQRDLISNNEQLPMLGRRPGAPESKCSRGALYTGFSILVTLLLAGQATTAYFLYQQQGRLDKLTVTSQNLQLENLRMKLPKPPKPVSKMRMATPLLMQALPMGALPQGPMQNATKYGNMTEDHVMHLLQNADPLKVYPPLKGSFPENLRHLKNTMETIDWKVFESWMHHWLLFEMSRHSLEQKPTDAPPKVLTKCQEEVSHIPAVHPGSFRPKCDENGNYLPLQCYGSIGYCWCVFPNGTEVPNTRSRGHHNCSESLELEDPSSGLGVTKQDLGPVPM
Description: cell-based or functional assay.

B1: his6‐tagged human recombinant TIMP‐1 protein (rTIMP‐1) (natural protein)
chain: not shown
modifications: extensively glycosylated
Take B1: the “P‐Akt (Ser473)/Akt ratio in MDA‐MB‐231 cells after 10 and 30 min of rTIMP‐1, normalised to 0 min (western blot)” value is 2.3 P‐Akt/Akt ratio normalised to the 0 min sample.
